Molecular target: 23 amino acid synthetic peptide corresponding to the M2e domain of A/Fort Worth/1/50 (H1N1) (Influenza A virus A/Fort Worth/1/50 (H1N1))
Experiment: ELISA, 23mer M2e peptide coated at 1 µg/mL (FIG. 14b)

chimeric mouse V-region/human IgG1 kappa 14C2 antibody
EC50: 0.01 µg/mL

Reference: US20110033476A1 (published 2011)
